# Reference: US20250263504A1 (Takeda / Millennium, published 2025)
# T1: Factor XIIa (FXIIa) (UniProt P00748 20-372; P00748 373-615, limits assumed)
# T1 construct: the description speaks of human FXIIa; also called active Factor XII
# T1 sequence (looked up) 1: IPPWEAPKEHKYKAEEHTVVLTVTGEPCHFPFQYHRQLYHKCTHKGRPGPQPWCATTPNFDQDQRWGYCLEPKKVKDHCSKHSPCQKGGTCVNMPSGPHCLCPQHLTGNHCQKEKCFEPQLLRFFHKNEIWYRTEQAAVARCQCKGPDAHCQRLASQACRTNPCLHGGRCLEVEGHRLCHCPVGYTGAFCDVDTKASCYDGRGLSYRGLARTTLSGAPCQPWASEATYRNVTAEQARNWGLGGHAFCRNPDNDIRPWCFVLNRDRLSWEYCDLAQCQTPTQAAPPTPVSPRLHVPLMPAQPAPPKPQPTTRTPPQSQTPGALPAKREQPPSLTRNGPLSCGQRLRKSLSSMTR
# T1 sequence (looked up) 2: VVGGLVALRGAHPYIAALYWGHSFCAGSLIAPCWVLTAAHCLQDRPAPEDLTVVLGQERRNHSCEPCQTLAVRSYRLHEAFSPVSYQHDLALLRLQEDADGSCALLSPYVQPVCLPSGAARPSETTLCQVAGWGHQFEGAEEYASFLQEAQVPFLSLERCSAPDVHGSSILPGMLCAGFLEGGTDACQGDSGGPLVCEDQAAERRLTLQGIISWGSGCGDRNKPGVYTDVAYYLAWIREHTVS
# Experiments:
# Factor XIIa (FXIIa) = molecular target: T1, Factor XIIa (FXIIa); assay: enzyme inhibition, corrected Ki,app
# plasma kallikrein (pKal) = molecular target: T2, plasma kallikrein (pKal) (UniProt P03952 20-390; P03952 391-638, limits assumed); assay: enzyme inhibition, corrected Ki,app
# T2 construct: the description speaks of human pKal; also called active pKal
# T2 sequence (P03952 20-390 limits assumed, form in doubt, chain 1 of 2): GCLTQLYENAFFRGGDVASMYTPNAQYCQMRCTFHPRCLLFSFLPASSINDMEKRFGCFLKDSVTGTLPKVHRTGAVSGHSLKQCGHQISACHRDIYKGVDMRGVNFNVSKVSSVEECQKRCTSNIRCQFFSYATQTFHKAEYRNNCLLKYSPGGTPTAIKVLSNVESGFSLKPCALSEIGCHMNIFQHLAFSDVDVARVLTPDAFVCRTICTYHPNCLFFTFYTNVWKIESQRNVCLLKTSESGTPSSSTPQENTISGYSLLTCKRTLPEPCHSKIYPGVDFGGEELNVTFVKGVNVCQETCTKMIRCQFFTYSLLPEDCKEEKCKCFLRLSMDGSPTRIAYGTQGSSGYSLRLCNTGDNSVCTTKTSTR
# T2 sequence (P03952 391-638 limits assumed, form in doubt, chain 2 of 2): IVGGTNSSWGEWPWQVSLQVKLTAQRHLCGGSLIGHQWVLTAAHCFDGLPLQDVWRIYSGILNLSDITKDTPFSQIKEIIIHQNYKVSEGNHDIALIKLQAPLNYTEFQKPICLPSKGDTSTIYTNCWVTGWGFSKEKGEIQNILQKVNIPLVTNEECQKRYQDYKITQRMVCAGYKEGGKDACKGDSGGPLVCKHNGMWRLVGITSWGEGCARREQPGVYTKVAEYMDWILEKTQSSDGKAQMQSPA
Binder,Ki (Factor XIIa (FXIIa)),Ki (plasma kallikrein (pKal))
"620I-X0136-C05 (bispecific antibody, also called 620I-X136-C05) heavy: not shown light: DIQMTQSPSTLSASVGDRVTITCRASQSISSWLAWYQQKPGKAPKLLIYKASTLESGVPSRFSGSGSGTEFTLTISSLQPDDFATYYCQQYNTYWTFGQGTKVEIKRTVAAPSVFIFPPSDEQLKSGTASVVCLLNNFYPREAKVQWKVDNALQSGNSQESVTEQDSKDSTYSLSSTLTLSKADYEKHKVYACEVTHQGLSSPVTKSFNRGEC",0.058 nM,0.15 nM
"620I-X0138-A06 (bispecific antibody, also called 620I-X138-A06) heavy: not shown light: DIQMTQSPSTLSASVGDRVTITCRASQSISSWLAWYQQKPGKAPKLLIYKASTLESGVPSRFSGSGSGTEFTLTISSLQPDDFATYYCQQYNTYWTFGQGTKVEIKRTVAAPSVFIFPPSDEQLKSGTASVVCLLNNFYPREAKVQWKVDNALQSGNSQESVTEQDSKDSTYSLSSTLTLSKADYEKHKVYACEVTHQGLSSPVTKSFNRGEC",,0.145 nM
"620I-X0136-A09 (bispecific antibody, human IgG1, kappa, also called 620I-X136-A09) heavy: not shown light: DIQMTQSPSTLSASVGDRVTITCRASQSISSWLAWYQQKPGKAPKLLIYKASTLESGVPSRFSGSGSGTEFTLTISSLQPDDFATYYCQQYNTYWTFGQGTKVEIKRTVAAPSVFIFPPSDEQLKSGTASVVCLLNNFYPREAKVQWKVDNALQSGNSQESVTEQDSKDSTYSLSSTLTLSKADYEKHKVYACEVTHQGLSSPVTKSFNRGEC",,0.19 nM
"620I-X0136-A05 (bispecific antibody, also called 620I-X136-A05) heavy: not shown light: DIQMTQSPSTLSASVGDRVTITCRASQSISSWLAWYQQKPGKAPKLLIYKASTLESGVPSRFSGSGSGTEFTLTISSLQPDDFATYYCQQYNTYWTFGQGTKVEIKRTVAAPSVFIFPPSDEQLKSGTASVVCLLNNFYPREAKVQWKVDNALQSGNSQESVTEQDSKDSTYSLSSTLTLSKADYEKHKVYACEVTHQGLSSPVTKSFNRGEC",0.111 nM,0.179 nM
"620I-X0136-D05 (bispecific antibody, also called 620I-X136-D05) heavy: not shown light: DIQMTQSPSTLSASVGDRVTITCRASQSISSWLAWYQQKPGKAPKLLIYKASTLESGVPSRFSGSGSGTEFTLTISSLQPDDFATYYCQQYNTYWTFGQGTKVEIKRTVAAPSVFIFPPSDEQLKSGTASVVCLLNNFYPREAKVQWKVDNALQSGNSQESVTEQDSKDSTYSLSSTLTLSKADYEKHKVYACEVTHQGLSSPVTKSFNRGEC",0.013 nM,0.055 nM
"620I-X0136-C04 (bispecific antibody, also called 620I-X136-C04) heavy: not shown light: DIQMTQSPSTLSASVGDRVTITCRASQSISSWLAWYQQKPGKAPKLLIYKASTLESGVPSRFSGSGSGTEFTLTISSLQPDDFATYYCQQYNTYWTFGQGTKVEIKRTVAAPSVFIFPPSDEQLKSGTASVVCLLNNFYPREAKVQWKVDNALQSGNSQESVTEQDSKDSTYSLSSTLTLSKADYEKHKVYACEVTHQGLSSPVTKSFNRGEC",0.189 nM,0.205 nM
"620I-X0136-C08 (bispecific antibody, also called 620I-X136-C08) heavy: not shown light: DIQMTQSPSTLSASVGDRVTITCRASQSISSWLAWYQQKPGKAPKLLIYKASTLESGVPSRFSGSGSGTEFTLTISSLQPDDFATYYCQQYNTYWTFGQGTKVEIKRTVAAPSVFIFPPSDEQLKSGTASVVCLLNNFYPREAKVQWKVDNALQSGNSQESVTEQDSKDSTYSLSSTLTLSKADYEKHKVYACEVTHQGLSSPVTKSFNRGEC",1.23 nM,0.216 nM
"620I-X0136-B02 (bispecific antibody, also called 620I-X136-B02) heavy: not shown light: DIQMTQSPSTLSASVGDRVTITCRASQSISSWLAWYQQKPGKAPKLLIYKASTLESGVPSRFSGSGSGTEFTLTISSLQPDDFATYYCQQYNTYWTFGQGTKVEIKRTVAAPSVFIFPPSDEQLKSGTASVVCLLNNFYPREAKVQWKVDNALQSGNSQESVTEQDSKDSTYSLSSTLTLSKADYEKHKVYACEVTHQGLSSPVTKSFNRGEC",2.86 nM,0.21 nM
"620I-X0136-C11 (bispecific antibody, also called 620I-X136-C11) heavy: not shown light: DIQMTQSPSTLSASVGDRVTITCRASQSISSWLAWYQQKPGKAPKLLIYKASTLESGVPSRFSGSGSGTEFTLTISSLQPDDFATYYCQQYNTYWTFGQGTKVEIKRTVAAPSVFIFPPSDEQLKSGTASVVCLLNNFYPREAKVQWKVDNALQSGNSQESVTEQDSKDSTYSLSSTLTLSKADYEKHKVYACEVTHQGLSSPVTKSFNRGEC",0.038 nM,0.154 nM
"620I-X0136-A01 (bispecific antibody, also called 620I-X136-A01) heavy: not shown light: DIQMTQSPSTLSASVGDRVTITCRASQSISSWLAWYQQKPGKAPKLLIYKASTLESGVPSRFSGSGSGTEFTLTISSLQPDDFATYYCQQYNTYWTFGQGTKVEIKRTVAAPSVFIFPPSDEQLKSGTASVVCLLNNFYPREAKVQWKVDNALQSGNSQESVTEQDSKDSTYSLSSTLTLSKADYEKHKVYACEVTHQGLSSPVTKSFNRGEC",0.224 nM,0.135 nM
"620I-X0136-C09 (bispecific antibody, also called 620I-X136-C09) heavy: not shown light: DIQMTQSPSTLSASVGDRVTITCRASQSISSWLAWYQQKPGKAPKLLIYKASTLESGVPSRFSGSGSGTEFTLTISSLQPDDFATYYCQQYNTYWTFGQGTKVEIKRTVAAPSVFIFPPSDEQLKSGTASVVCLLNNFYPREAKVQWKVDNALQSGNSQESVTEQDSKDSTYSLSSTLTLSKADYEKHKVYACEVTHQGLSSPVTKSFNRGEC",0.09 nM,0.173 nM
"620I-X0136-B11 (bispecific antibody, also called 620I-X136-B11) heavy: not shown light: DIQMTQSPSTLSASVGDRVTITCRASQSISSWLAWYQQKPGKAPKLLIYKASTLESGVPSRFSGSGSGTEFTLTISSLQPDDFATYYCQQYNTYWTFGQGTKVEIKRTVAAPSVFIFPPSDEQLKSGTASVVCLLNNFYPREAKVQWKVDNALQSGNSQESVTEQDSKDSTYSLSSTLTLSKADYEKHKVYACEVTHQGLSSPVTKSFNRGEC",0.184 nM,0.172 nM
"620I-X0136-A02 (bispecific antibody, also called 620I-X136-A02) heavy: not shown light: DIQMTQSPSTLSASVGDRVTITCRASQSISSWLAWYQQKPGKAPKLLIYKASTLESGVPSRFSGSGSGTEFTLTISSLQPDDFATYYCQQYNTYWTFGQGTKVEIKRTVAAPSVFIFPPSDEQLKSGTASVVCLLNNFYPREAKVQWKVDNALQSGNSQESVTEQDSKDSTYSLSSTLTLSKADYEKHKVYACEVTHQGLSSPVTKSFNRGEC",0.136 nM,0.176 nM
"620I-X0136-B07 (bispecific antibody, also called 620I-X136-B07) heavy: not shown light: DIQMTQSPSTLSASVGDRVTITCRASQSISSWLAWYQQKPGKAPKLLIYKASTLESGVPSRFSGSGSGTEFTLTISSLQPDDFATYYCQQYNTYWTFGQGTKVEIKRTVAAPSVFIFPPSDEQLKSGTASVVCLLNNFYPREAKVQWKVDNALQSGNSQESVTEQDSKDSTYSLSSTLTLSKADYEKHKVYACEVTHQGLSSPVTKSFNRGEC",0.099 nM,0.168 nM
"620I-X0136-A11 (bispecific antibody, also called 620I-X136-A11) heavy: not shown light: DIQMTQSPSTLSASVGDRVTITCRASQSISSWLAWYQQKPGKAPKLLIYKASTLESGVPSRFSGSGSGTEFTLTISSLQPDDFATYYCQQYNTYWTFGQGTKVEIKRTVAAPSVFIFPPSDEQLKSGTASVVCLLNNFYPREAKVQWKVDNALQSGNSQESVTEQDSKDSTYSLSSTLTLSKADYEKHKVYACEVTHQGLSSPVTKSFNRGEC",0.193 nM,0.199 nM
"620I-X0136-A12 (bispecific antibody, also called 620I-X136-A12) heavy: not shown light: DIQMTQSPSTLSASVGDRVTITCRASQSISSWLAWYQQKPGKAPKLLIYKASTLESGVPSRFSGSGSGTEFTLTISSLQPDDFATYYCQQYNTYWTFGQGTKVEIKRTVAAPSVFIFPPSDEQLKSGTASVVCLLNNFYPREAKVQWKVDNALQSGNSQESVTEQDSKDSTYSLSSTLTLSKADYEKHKVYACEVTHQGLSSPVTKSFNRGEC",0.304 nM,0.234 nM
"620I-X0136-A04 (bispecific antibody, also called 620I-X136-A04) heavy: not shown light: DIQMTQSPSTLSASVGDRVTITCRASQSISSWLAWYQQKPGKAPKLLIYKASTLESGVPSRFSGSGSGTEFTLTISSLQPDDFATYYCQQYNTYWTFGQGTKVEIKRTVAAPSVFIFPPSDEQLKSGTASVVCLLNNFYPREAKVQWKVDNALQSGNSQESVTEQDSKDSTYSLSSTLTLSKADYEKHKVYACEVTHQGLSSPVTKSFNRGEC",0.23 nM,0.171 nM
"620I-X0136-C01 (bispecific antibody, also called 620I-X136-C01) heavy: not shown light: DIQMTQSPSTLSASVGDRVTITCRASQSISSWLAWYQQKPGKAPKLLIYKASTLESGVPSRFSGSGSGTEFTLTISSLQPDDFATYYCQQYNTYWTFGQGTKVEIKRTVAAPSVFIFPPSDEQLKSGTASVVCLLNNFYPREAKVQWKVDNALQSGNSQESVTEQDSKDSTYSLSSTLTLSKADYEKHKVYACEVTHQGLSSPVTKSFNRGEC",0.957 nM,0.173 nM
"620I-X0136-C12 (bispecific antibody, also called 620I-X136-C12) heavy: not shown light: DIQMTQSPSTLSASVGDRVTITCRASQSISSWLAWYQQKPGKAPKLLIYKASTLESGVPSRFSGSGSGTEFTLTISSLQPDDFATYYCQQYNTYWTFGQGTKVEIKRTVAAPSVFIFPPSDEQLKSGTASVVCLLNNFYPREAKVQWKVDNALQSGNSQESVTEQDSKDSTYSLSSTLTLSKADYEKHKVYACEVTHQGLSSPVTKSFNRGEC",1.57 nM,0.217 nM
"620I-X0136-C07 (bispecific antibody, also called 620I-X136-C07) heavy: not shown light: DIQMTQSPSTLSASVGDRVTITCRASQSISSWLAWYQQKPGKAPKLLIYKASTLESGVPSRFSGSGSGTEFTLTISSLQPDDFATYYCQQYNTYWTFGQGTKVEIKRTVAAPSVFIFPPSDEQLKSGTASVVCLLNNFYPREAKVQWKVDNALQSGNSQESVTEQDSKDSTYSLSSTLTLSKADYEKHKVYACEVTHQGLSSPVTKSFNRGEC",0.699 nM,0.182 nM
